Measurements: patent publication US20250243282A1 (TRUEBINDING, published 2025)
Changes are numbered by the printed parent chain. Numbers in names are those of the source.

B1: 847.15D12 (antibody, V domains shown)
VH: QVQLQQSGAELMKPGASVKISCKATGYTFTNYWIEWVKQRPGHGLEWIGEFLPGDGSSHYNEKFKGKATFTSDTSSNTAYIHLTSLTSEDSAVYYCVRDDYDSDYWAQGTTLTVSS
VL: QAVVTQESALTTSPGETVTLTCRSSTGAVTTSNYANWVQEKPDHLFTGLIGGTNNRAPGVPARFSGSLIGDKAALTITGAQTEDEAIYFCALWYSNHLVFGGGTKLTVL
B2: 849.1D2 (antibody, V domains shown)
VH: QVQLKESGPVLVAPSQSLSITCTVSGFSLSSYGVHWVRQPPGKGLEWLGVIWAGGSTDYDSALMSRLSISKDNSKSQVFLKMDSLQTDDTAMYYCAKPPYDYDGAWFAYWGQGTLVTVSA
VL: DVVMTQTPKFLLVSAGDRVTITCKASQSVSSDVAWYQQKPGQSPKLLIYFASNRYTGVPDRFTGSGYGTDFTFTISTVQAEDLAVYFCQHNYISPFTFGGGTKLEIK
B3: 847.12C4 (antibody, V domains shown)
VH: QVQLKESGPDLVQPSQTLSLTCTVSGFSLTIYGVHWVRQPPGKGLEWVGTVAWDDKKYYNSPLQSRLSISRDTSKNQVFLKLSSLQTEDTAMYYCTMTGGPINYWGPGTSVTVSS
VL: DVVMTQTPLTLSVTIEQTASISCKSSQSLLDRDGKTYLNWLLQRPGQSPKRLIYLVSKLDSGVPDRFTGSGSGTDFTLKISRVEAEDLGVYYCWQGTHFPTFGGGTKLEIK
B4: 847.4D3 (antibody, V domains shown)
VH: EVQLVESGGGLVKPGGSLKLSCAASGFTFSSYAMSWVRQTPEKRLEWVASISSGDSPYYPDSVKGRFTISRDNARNILYLQMSSLRSEDTAMYYCTRFTTVVEMDYWGQGTSVTVSS
VL: DVVMTQTPKFLPITAEDRVTITCKASQSVSNEVAWYQQKPGQSPKLLIYYASNRYTGVPDRFTGSGSGTDFTFTIRSVQLEDLAVYFCQQHYSSPWTFGGGTKLEIK
B5: 847.2B8 (antibody, V domains shown)
VH: QVQLKQSGPGLVQPSQSLSITCTVSGFSLINYGVHWVRQSPGKGLEWLGVIWSGGSTDYNAAFISRLSISKDNSKSQVFFKMNSLQADDTAIYYCARIYYYGRGYAMDYWGQGTSVTVSS
VL: QILLSQSPAILSASPGEKVTMTCRASSSVTYMYWYQQKPGSSPQPWIYATSNLASGVPARFSGSGSGTSYSLTISRVEAEDAATYYCQQWSSNPLTFGAGTKLELK
B6: 847.15H11 (antibody, V domains shown)
VH: EVQLQQSGAEVVKPGAPVKLSCKASGYTFNNYWLNWVKQRPGRGLEWIGRIDPSDSETHYNQKFKDKATLTVDMSSSTAYIQLSSLTSEDSAVYYCARGDYYYGTRGPMDYWGQGTSVTVSS
VL: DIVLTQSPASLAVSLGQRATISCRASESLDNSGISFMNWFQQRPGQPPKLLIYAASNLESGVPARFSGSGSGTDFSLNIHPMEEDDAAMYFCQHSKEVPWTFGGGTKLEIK
B7: 847.10C9 (antibody, V domains shown)
VH: EVQLQQSGAELVRPGTSVKVSCKASEYAFNNYMMEWVKQRPGQGLEWIGVINPGSGATNYNENFKDKATLTADKSSTTAYMQLSSLTSDDSAVYFCTYNDLGYWGQGTLVTVSA
VL: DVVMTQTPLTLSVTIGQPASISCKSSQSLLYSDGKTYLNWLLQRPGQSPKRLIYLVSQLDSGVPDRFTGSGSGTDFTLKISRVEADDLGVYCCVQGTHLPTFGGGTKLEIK
B8: 847.27B9 (antibody, V domains shown)
VH: QIQLVQSGPELKKPGETVKISCKASGYTFTNYGMNWVKQAPGKGLKWMGWINTNTGEPTYAEEFKGRFAFSLETSASTAYLQINYLKNEDTATFFCARLDYDYDEDYWGQGTTLTVSS
VL: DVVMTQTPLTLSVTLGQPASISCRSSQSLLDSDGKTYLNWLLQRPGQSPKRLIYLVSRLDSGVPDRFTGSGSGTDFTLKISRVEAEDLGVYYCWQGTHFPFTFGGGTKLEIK
B9: 6B3.2D3 (antibody, human IgG4 S228P, kappa, V domains shown)
VH: QVQLKQSGPGLVQPSQSLSITCTVSGFSLTSYGVHWVRQPPGKGLEWLGVIWSGGSTDYNAAFISRLSISKDNSKSQVFFKMNSLQADDTAIYYCAKGPYDYDLGWFAYWGQGTLVTVSA
VL: SIVMTQTPKFLLVSAGDRVTITCKASQSVSNDVAWYQQKPGQSPKLLIYYASNRYTGVPDRFTGSGYGTDFTFTISTVQAEDLAVYFCQQDYTSPYTFGGGTKLEIKR
B10: 9H2.2H10 (antibody, human IgG4 S228P, kappa, V domains shown)
VH: QVQLQQPGAELVGPGSSVKLSCKASGYTFTNYWIHWVKQRPLQGLEWIGNIDPSDSETHYNQKFKDKATLTVDKSSSTAYMQLSSLTSEDSAVYYCARHGYYDYWGQGTTLTVSS
VL: DIVMTQSHKFMSTSVGDRVSITCKASQDVSTAVAWYQQKPGQSPKLLIYWASTRHTGVPDRFTGSGSGTDYTLTISSVQAEDLALYYCQQHYTTPLTFGAGTKLELKR
B11: 847.28D1 (antibody, V domains shown)
VH: QVQLVETGPGLVAPSQSLSITCTVSGFSLTSYGVHWIRQSPGKGLEWLGTIWAGGSTDYNSPLMSRLSISKDNSKNQVFLKMNSLQIDDTAIYYCASPPSGYDYDVFASWGQGTLVTVSA
VL: DIRMTQSPASLSASVGETVTITCRASGNIHNYLAWYHQKQGKSPQLLVYNVKTLADGVPSRFSGSGSGTQFSLKINSLQPEDFGTYYCQHFWSIFPTFGGGTKLEIK
B12: 847.3B3 (antibody, V domains shown)
VH: B11 VH with V5K, T7S, S40P, T50G, S70T, N76S, I87S, I92M, S109Y
VL: B11 VL with R3L, H37Q, N50S, V51A, N76D, I94L
B13: 847.11D6 (antibody, V domains shown)
VH: EVKLQQSGPELMKPGTSMKISCKASGYSFTGYTMNWVKQSHGKNLEWIGLINPYNGGTNYNQKFRGKATLSVDKSSNTAYMELLSLTSEDSAVYYCARKDDYYGSSPYALDYWGQGTSVTVSS
VL: DIVMTQSPASLAVSLGQRATISCRASESVENHVNSFMHWFQQKPGQPPKLLIYRASNLQSGIPARFSGSGSRTDFTLTINPVEADDVATYYCQQNNEVPYTFGGGTKLEIK
B14: 13G4.2F8 (antibody, human IgG4 S228P, kappa, V domains shown)
VH: QVQLQQPGAELVKPGASVKLSCKASGYTFTSYWMHWVKQRPGQGLEWIGMIHPNSGSTDYNEKFKNKATLNVDKSSSTAYIQLSSLTSEDSAVYYCTRWGIYYYARDYWGQGTTLTVSS
VL: DIVMTQSQKFMSTSVGERVSITCKASQNVGTNVAWYQQKAGQSLELLIYGASNRHTGVPDRFTGSGSGTDFTLTITNVQSEDMTNYFCEQYSNFPLTFGAGTKLELKR
B15: 847.20H7 (antibody, V domains shown)
VH: QVQLQQSGAELVRPGASVNLSCKASGYTFTNYWMNWVKQRPGQGLEWVGMIDPSDSETHYNQMFKDKATLTIDKSSSIAYMQLSSLTSEDSAVYYCARWGAMDYWGQGTSVTVSS
VL: DIVMTQSHKIMSTSVGDRVSITCKASQDVSTTVAWFQQKPGQSPKLLLYWASTRHTGVPDRFTGSGSGTDYTLTISSVQAEDLALYYCQQHYSPPFTFGSGTKLEIK
B16: F846C.1F5 (antibody, human IgG4 S228P, kappa, V domains shown)
VH: QIQLVQSGPELKKPGETVKISCKASGYTFTNYGMNWVKQAPGKGLKWMGWINTYTGEPSYADDFKGRFAFSLETSASTAYLQINNLKNEDMATYFCARWGGYDGDYYAMDYWGQGTSVTVSS
VL: NIMMTQSPSSLAVSAGEKVTMSCKSSQSVLYSSNQKNYLAWYQQKPGQSPKLLIYWASTRESGVPDRFTGSGSGTDFTLTISSVQPEDLAVYYCHQYLSSLTFGAGTKLELKR
B17: F846C.2H3 (antibody, human IgG4 S228P, kappa, V domains shown)
VH: B16 VH
VL: B16 VL
B18: F846C.1H12 (antibody, human IgG4 S228P, kappa, V domains shown)
VH: B16 VH with Y32F, M91I, D103A
VL: B16 VL with E17Q, N34S, T69S
B19: F846TC.16B5 (antibody, human IgG4 S228P, kappa, V domains shown)
VH: B16 VH with S59A
VL: B16 VL with P86A
B20: F846C.1B2 (antibody, human IgG4 S228P, kappa, V domains shown)
VH: B16 VH with D103A, Y111F
VL: B16 VL with M3W, M4L, K18M, S22T, T78S, P86A

molecular target: T1, Recombinant human Gal3 (rhGal3) (TrueBinding, #QC200361) (human, UniProt P17931 2-250); test: cell-based or functional assay
Throughout, for % inhibition of CD62L shedding: test concentration or dose not given here.
Throughout, for % inhibition of IL-6 secretion: test concentration or dose not given here.
Throughout, for % inhibition of TNFα secretion: test concentration or dose not given here.

Binder	% inhibition of CD62L shedding [%]
B1	15.4
B2	130
B3	150
B4	7.5
B5	7
B6	39.3
B7	150
B8	87.9
B9	98.9
B10	67.7
B11	110
B12	43.4
B13	83.2
B14	94.3
B15	63.4
B16	76.3
B17	93.6
B18	100
B19	84.2
B20	99

molecular target: T1, Recombinant human Gal3 (rhGal3) …; test: cell-based or functional assay; remark: another data set of the same source

Binder	% inhibition of IL-6 secretion [%]	% inhibition of TNFα secretion [%]
B1	-71.9	-153
B2	26.8	37
B3	-0.7	-5.4
B6	94.7	100
B7	> -1000	-246
B8	-84.7	70.1
B9	0.2	-1.2
B10	-99.1	-39.2
B11	78.6	80.5
B12	72.3	94.3
B13	22.7	-3.1
B14	55.1	83.2
B15	-155	-185
B16	-16	51.7
B17	-49.1	62.8
B18	51.8	95.3
B19	-204	-11.4
B20	-9	43.9

molecular target: T2, human Gal3 protein (recombinant human Galectin-3) (human, UniProt P17931 2-250); test: SPR (Carterra LSA), antibody immobilised on HC200M chip, hGal3 injected
T2 construct: also called hGal3; hGAL3
T2 sequence (P17931 2-250 limits assumed): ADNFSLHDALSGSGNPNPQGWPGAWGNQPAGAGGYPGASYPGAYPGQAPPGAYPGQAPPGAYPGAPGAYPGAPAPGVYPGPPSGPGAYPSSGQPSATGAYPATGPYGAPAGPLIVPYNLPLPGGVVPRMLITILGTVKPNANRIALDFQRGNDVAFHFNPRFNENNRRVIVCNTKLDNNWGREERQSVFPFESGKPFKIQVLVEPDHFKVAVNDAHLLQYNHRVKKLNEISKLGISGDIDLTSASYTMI

Binder	binding result
B4	no binding
B5	no binding
